# T1: Ba/F3 cells expressing human wildtype FLT3 (Homo sapiens, UniProt P36888)
# T1 construct: expressed in transfected cells; host or cells: Ba/F3 cells, retrovirally transduced with MSCV-IRES-YFP (pMIY) vector
# T1 sequence (P36888 27-993): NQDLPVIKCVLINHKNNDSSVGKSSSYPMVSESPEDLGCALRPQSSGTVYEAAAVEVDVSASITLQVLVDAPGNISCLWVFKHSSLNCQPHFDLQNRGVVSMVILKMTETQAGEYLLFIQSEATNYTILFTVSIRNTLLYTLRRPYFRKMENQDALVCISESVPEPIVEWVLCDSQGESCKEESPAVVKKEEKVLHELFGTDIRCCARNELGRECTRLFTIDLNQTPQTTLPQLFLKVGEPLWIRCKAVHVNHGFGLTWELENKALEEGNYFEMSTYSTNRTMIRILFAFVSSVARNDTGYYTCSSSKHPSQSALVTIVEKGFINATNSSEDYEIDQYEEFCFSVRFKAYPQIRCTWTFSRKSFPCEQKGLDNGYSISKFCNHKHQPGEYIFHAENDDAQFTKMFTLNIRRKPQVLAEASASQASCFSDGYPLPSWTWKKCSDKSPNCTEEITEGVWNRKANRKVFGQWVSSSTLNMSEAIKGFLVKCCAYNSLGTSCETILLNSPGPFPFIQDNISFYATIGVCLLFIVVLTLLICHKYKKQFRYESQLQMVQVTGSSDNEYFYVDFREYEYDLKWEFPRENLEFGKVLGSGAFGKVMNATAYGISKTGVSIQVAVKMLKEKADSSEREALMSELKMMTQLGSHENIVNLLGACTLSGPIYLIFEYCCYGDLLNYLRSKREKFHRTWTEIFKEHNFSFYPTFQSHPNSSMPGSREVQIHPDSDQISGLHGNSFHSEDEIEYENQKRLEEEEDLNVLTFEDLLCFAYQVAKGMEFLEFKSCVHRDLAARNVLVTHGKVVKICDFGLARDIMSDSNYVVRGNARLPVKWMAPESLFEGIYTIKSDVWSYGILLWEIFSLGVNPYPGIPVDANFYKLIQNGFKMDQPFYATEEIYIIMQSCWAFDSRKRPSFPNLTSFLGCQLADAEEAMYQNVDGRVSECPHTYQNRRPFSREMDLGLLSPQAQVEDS
# T2: recombinant human FLT3 (Homo sapiens, UniProt P36888)
# T2 construct: purchased Sino Biological 10445-H08H
# T2 sequence (P36888 27-541 limits assumed): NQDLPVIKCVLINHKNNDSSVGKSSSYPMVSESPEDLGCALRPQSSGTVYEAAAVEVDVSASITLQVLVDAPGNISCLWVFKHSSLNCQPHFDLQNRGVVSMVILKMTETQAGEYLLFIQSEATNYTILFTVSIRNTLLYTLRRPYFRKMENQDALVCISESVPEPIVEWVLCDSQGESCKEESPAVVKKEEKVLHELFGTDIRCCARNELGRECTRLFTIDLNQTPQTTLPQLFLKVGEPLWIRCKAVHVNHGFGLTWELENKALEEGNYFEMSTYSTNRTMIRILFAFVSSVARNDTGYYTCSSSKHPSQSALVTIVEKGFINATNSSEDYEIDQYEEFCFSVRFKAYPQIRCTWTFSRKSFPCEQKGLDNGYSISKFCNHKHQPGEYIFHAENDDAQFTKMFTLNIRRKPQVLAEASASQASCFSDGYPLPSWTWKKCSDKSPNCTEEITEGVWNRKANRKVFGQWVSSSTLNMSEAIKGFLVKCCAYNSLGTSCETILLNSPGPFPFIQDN
# B1: 4B12: chimeric anti-FLT3 antibody from rat; VH SEQ ID NO: 9, VL SEQ ID NO: 10 (antibody, V domains shown)
# VH: QVQLQQSGPGLVQPSQTLSLTCTVSGFSLTSYNVNWVRQPPGKGLEWIGAMWRGGGTDYNPALKSRLSISRDTSKSQVFLKMNRLQTEDTAIYFCTRGFGDYWGQGVMVTVSSA
# VL: DIQMTQTPLSLSVAIGQSASISCKSSQSLKYSDGKTYLNWVFQSPGQSPKRLIYQVSKLDSGVPDRFSGTGSETDFTLKISRVEAEDLGVYYCCQGSYSPSTFGAGTKLELKR
# modifications: Clone 4B12, heavy chain variable region without a signal sequence; Clone 4B12, light chain variable region without a signal seqeunce
# B2: 20D9: chimeric (rat variable regions, human IgG1) anti-FLT3 monoclonal antibody; VH SEQ ID NO: 5, VL SEQ ID NO: 6 (antibody, V domains shown)
# VH: DVMLVESGGGLVQPGRSLKLSCVASGFTFNNYWMTWIRQAPGKGLEWIASITKTGGGTYYPDSVKGRFTISRDNAKSTLYLQMNSLRSEDTATYYCTTLQQLGVMDAWGQGASVTVSSA
# VL: DVQMTQSPSVLSASVGDRITLNCKASQNINKELNWYQQKLGEAPKLLIYNTNNLQTGIPSRFSGSGSGTDYTLTISSLQPEDVATYFCFQHKSWPLTFGSGTKLEIKR
# modifications: Clone 20D9, heavy chain variable region without a signal seqeunce; Clone 20D9, light chain variable region without a signal seqeunce
# What was measured:
# [1] = target: T1, Ba/F3 cells expressing human wildtype FLT3; experiment: Temperature induced internalization in Ba/F3-FLT3, flow cytometry; assay type: cell-based; conditions: 30 min at 37° C. compared to 4° C.
# Text: FIG. 1: Evaluation of epitope specificity and internalization capability of anti-FLT3 monoclonal antibodies. (A) Affinity of seven anti-FLT3 monoclonal antibody (mab) clones to recombinant human FLT3 measured in enzyme-linked immunosorbent assay (ELISA) normalized to the binding of the antibodies to BSA control. […] (B) Schematic FLT3 receptor. Black arrows indicate common mutations and blue arrows indicate the three identified epitopes of seven anti-FLT3 antibodies analyzed in linear epitope mapping by PEPperPRINT. Figure was created with BioRender.com. (C) Binding and temperature induced internalization of anti-FLT3 antibodies in Ba/F3 cells expressing human wildtype FLT3. Internalization was induced by incubation for 30 min at 37° C. (grey) compared to 4° C. (black). Remaining surface-bound antibody was detected in flow cytometry. MFI was normalized to control human IgG1 binding. MFI=mean fluorescence intensity. […] (D) Cell surface binding of 20D9 mab or control human IgG1 antibody to Ba/F3 cells stably expressing pMIY (Ba/F3-pMIY) empty vector (ev), human wildtype (hFLT3 wt) or ITD mutant human FLT3 (hFLT3ITD) was measured in flow cytometry. Mean±s.d. of n=3. (E) Temperature induced internalization of 4B12 mab in MOLM-13 (FLT3 positive) cells after 30 min incubation at 37° C. compared to 4° C. and HL-60 (FLT3 negative) after 37° C. incubation assessed in immunofluorescence staining. Red=FLT3 staining by 4B12, Green=membrane staining by Vybrant DiO, Blue=nuclear staining by DAPI. Scale bar 5 μm. Representative pictures are shown. (F) Cell surface binding of 20D9 mab or control hIgG1 antibody to Ba/F3-pMIY ev, hFLT3 wt, murine (mFLT3 wt) or cynomolgues monkey FLT3 (cynoFLT3 wt) was measured in flow cytometry. Mean±s.d. of n=3. (G) Cell surface binding of 20D9 mab or control hIgG1 antibody to Ba/F3-PMIY ev, hFLT3 wt or epitope mutant FLT3 (hFLT3/S50P/P54R) measured in flow cytometry. Mean±s.d. of n=3. (H) Cell surface binding of 20D9 mab or control hIgG1 antibody to Ba/F3-PMIY ev, hFLT3 wt or human CD64 (hCD64) measured in flow cytometry. Mean±s.d. of n=3. […]
# recombinant human FLT3 = target: T2, recombinant human FLT3; experiment: ELISA affinity to recombinant human FLT3; assay type: binding; conditions: chimeric Ab clones
# Text: FIG. 1: Evaluation of epitope specificity and internalization capability of anti-FLT3 monoclonal antibodies. (A) Affinity of seven anti-FLT3 monoclonal antibody (mab) clones to recombinant human FLT3 measured in enzyme-linked immunosorbent assay (ELISA) normalized to the binding of the antibodies to BSA control. […] (B) Schematic FLT3 receptor. Black arrows indicate common mutations and blue arrows indicate the three identified epitopes of seven anti-FLT3 antibodies analyzed in linear epitope mapping by PEPperPRINT. Figure was created with BioRender.com. (C) Binding and temperature induced internalization of anti-FLT3 antibodies in Ba/F3 cells expressing human wildtype FLT3. Internalization was induced by incubation for 30 min at 37° C. (grey) compared to 4° C. (black). Remaining surface-bound antibody was detected in flow cytometry. MFI was normalized to control human IgG1 binding. MFI=mean fluorescence intensity. […] (D) Cell surface binding of 20D9 mab or control human IgG1 antibody to Ba/F3 cells stably expressing pMIY (Ba/F3-pMIY) empty vector (ev), human wildtype (hFLT3 wt) or ITD mutant human FLT3 (hFLT3ITD) was measured in flow cytometry. Mean±s.d. of n=3. (E) Temperature induced internalization of 4B12 mab in MOLM-13 (FLT3 positive) cells after 30 min incubation at 37° C. compared to 4° C. and HL-60 (FLT3 negative) after 37° C. incubation assessed in immunofluorescence staining. Red=FLT3 staining by 4B12, Green=membrane staining by Vybrant DiO, Blue=nuclear staining by DAPI. Scale bar 5 μm. Representative pictures are shown. (F) Cell surface binding of 20D9 mab or control hIgG1 antibody to Ba/F3-pMIY ev, hFLT3 wt, murine (mFLT3 wt) or cynomolgues monkey FLT3 (cynoFLT3 wt) was measured in flow cytometry. Mean±s.d. of n=3. (G) Cell surface binding of 20D9 mab or control hIgG1 antibody to Ba/F3-PMIY ev, hFLT3 wt or epitope mutant FLT3 (hFLT3/S50P/P54R) measured in flow cytometry. Mean±s.d. of n=3. (H) Cell surface binding of 20D9 mab or control hIgG1 antibody to Ba/F3-PMIY ev, hFLT3 wt or human CD64 (hCD64) measured in flow cytometry. Mean±s.d. of n=3.
# Maxisorp plates were coated with human recombinant FLT3 protein (10445-H08H, Sino Biological). Chimeric (20D9) or humanized anti-FLT3 monoclonal antibodies (in house) and secondary alkaline phosphatase conjugated rabbit anti-human IgG antibody (309-055-008, Jackson Immunoresearch) were used. For detection, Attophos Fluorescent Substrate System (S1000, Promega) was applied. The fluorescence was read with excitation of 405 nm and emission at 500-550 nm. The calculation of the dissociation constant KD was performed using GraphPad Prism version 9.4.0.
molecule,measurement,setting,value
B1,Internalization in Ba/F3-FLT3,[1],86%
same,Affinity Kd,recombinant human FLT3,0.03191 µg/mL
B2,Internalization in Ba/F3-FLT3,[1],79%
same,Affinity Kd,recombinant human FLT3,0.02188 µg/mL
